Data published in publication PMC8298264, “Function of cofactor Akirin2 in the regulation of gene expression in model human neutrophil-like HL60 cells” (Bioscience Reports, 2021).

What follows are molecules tested on human HL60 cells (assay: SWATH-MS proteomics, differential protein representation, akirin2 KO vs WT HL60 cells). Details: Over-represented in KO; KO vs WT HL60 cells.
Type: cell-based
Procedure: Total proteins were extracted from WT and akirin2 KO HL60 cells using the AllPrep DNA/RNA/Protein Mini Kit (Qiagen) and protein concentration was determined using the BCA Protein Assay with BSA (Sigma–Aldrich) as standard. Protein extracts (150 µg per sample, n=3 biological replicates) from each WT and KO cells were trypsin digested using the FASP Protein Digestion Kit (Expedeon Ltd., Abcam, Cambridge, U.K.) and sequencing grade trypsin (Promega, Madison, WI, U.S.A.) following manufacturer’s recommendations. The resulting peptides were finally desalted on to OMIX Pipette tips C18 (Agilent Technologies, Santa Clara, CA, U.S.A.), dried down and stored at −20 °C until mass spectrometry analysis. […] Three micrograms of each protein digest from the three biological replicates of WT and akirin2 KO HL60 cells were used for the generation of the reference spectral ion library as part of the SWATH-MS analysis.
Peptides were eluted in a 120-min gradient from 5 to 30% solvent B in solvent A followed by 15-min gradient from 30 to 60% solvent B in solvent A (solvent A: 0.1% formic acid in water, solvent B: 0.1% formic acid in acetonitrile) and directly injected into the mass spectrometer for analysis. For IDA experiments, the mass spectrometer was set to scanning full spectra (350–1400 m/z) using 250 ms accumulation time per spectrum, followed by up to 50 MS/MS scans (100–1500 m/z). Candidate ions with a charge state between +2 and +5 counts per second above a minimum threshold of 100 were isolated for fragmentation. One MS/MS spectrum was collected for 100 ms, before adding those precursor ions to the exclusion list for 15 s (mass spectrometer operated by Analyst TF 1.6, AB Sciex). Dynamic background subtraction was turned off. MS/MS analyses were recorded in high-sensitivity mode with rolling collision energy on and a collision energy spread of 5. For SWATH quantitative analysis, six independent samples (three replicates from WT and akirin2 KO HL60 cells, 5 µg each) were subjected to the cyclic DIA of mass spectra using the SWATH variable windows calculator (V 1.0, AB Sciex) and the SWATH acquisition method editor (AB Sciex), similar to established methods. […] For these experiments, a 50-ms survey scan (350–1400 m/z) was acquired at the beginning of each cycle, and SWATH–MS/MS spectra were collected from 100–1500 m/z for 70 ms at high-sensitivity mode, resulting in a cycle time of 3.6 s. Collision energy for each window was determined according to the calculation for a charge +2 ion-centered upon the window with a collision energy spread of 15. To create a spectral library of all the detectable peptides in the samples, the IDA MS raw files were combined and subjected to database search in unison using ProteinPilot software v. 5.0.1 (AB Sciex) with the Paragon algorithm. […] The detected protein threshold was set at 0.05. An independent false discovery rate (FDR) analysis, using the target–decoy approach provided by Protein Pilot (AB Sciex; https://sciex.com/products/software/proteinpilot-software), was used to assess the quality of identifications. Positive identifications were considered when identified proteins reached 1% of global FDR. […] Global normalization was performed according to the Total Area Sums (TAS) of all detected proteins in the samples. […] Heatmaps were prepared using the Heatmapper (http://www.heatmapper.ca/expression/) with average linkage and Euclidean distance measurement method.

Molecule	Fold Change	Log (Fold Change)
sp¦P41218¦MNDA_HUMAN (protein, UniProt P41218 1-407, looked up) Myeloid cell nuclear …: MVNEYKKILLLKGFELMDDYHFTSIKSLLAYDLGLTTKMQEEYNRIKITDLMEKKFQGVACLDKLIELAKDMPSLKNLVNNLRKEKSKVAKKIKTQEKAPVKKINQEEVGLAAPAPTARNKLTSEARGRIPVAQKRKTPNKEKTEAKRNKVSQEQSKPPGPSGASTSAAVDHPPLPQTSSSTPSNTSFTPNQETQAQRQVDARRNVPQNDPVTVVVLKATAPFKYESPENGKSTMFHATVASKTQYFHVKVFDINLKEKFVRKKVITISDYSECKGVMEIKEASSVSDFNQNFEVPNRIIEIANKTPKISQLYKQASGTMVYGLFMLQKKSVHKKNTIYEIQDNTGSMDVVGSGKWHNIKCEKGDKLRLFCLQLRTVDRKLKLVCGSHSFIKVIKAKKNKEGPMNVN	1.264	0.1017
sp¦O00273¦DFFA_HUMAN (protein, UniProt O00273 1-331, looked up) DNA fragmentation factor …: MEVTGDAGVPESGEIRTLKPCLLRRNYSREQHGVAASCLEDLRSKACDILAIDKSLTPVTLVLAEDGTIVDDDDYFLCLPSNTKFVALASNEKWAYNNSDGGTAWISQESFDVDETDSGAGLKWKNVARQLKEDLSSIILLSEEDLQMLVDAPCSDLAQELRQSCATVQRLQHTLQQVLDQREEVRQSKQLLQLYLQALEKEGSLLSKQEESKAAFGEEVDAVDTGISRETSSDVALASHILTALREKQAPELSLSSQDLELVTKEDPKALAVALNWDIKKTETVQEACERELALRLQQTQSLHSLRSISASKASPPGDLQNPKRARQDPT	1.2886	0.1101
sp¦Q99614¦TTC1_HUMAN (protein, UniProt Q99614 1-292, looked up) Tetratricopeptide repeat …: MGEKSENCGVPEDLLNGLKVTDTQEAECAGPPVPDPKNQHSQSKLLRDDEAHLQEDQGEEECFHDCSASFEEEPGADKVENKSNEDVNSSELDEEYLIELEKNMSDEEKQKRREESTRLKEEGNEQFKKGDYIEAESSYSRALEMCPSCFQKERSILFSNRAAARMKQDKKEMAINDCSKAIQLNPSYIRAILRRAELYEKTDKLDEALEDYKSILEKDPSIHQAREACMRLPKQIEERNERLKEEMLGKLKDLGNLVLRPFGLSTENFQIKQDSSTGSYSINFVQNPNNNR	1.292	0.1114
sp¦O14745¦NHRF1_HUMAN (protein, UniProt O14745 2-358, looked up) Na(+)/H(+) exchange …: SADAAAGAPLPRLCCLEKGPNGYGFHLHGEKGKLGQYIRLVEPGSPAEKAGLLAGDRLVEVNGENVEKETHQQVVSRIRAALNAVRLLVVDPETDEQLQKLGVQVREELLRAQEAPGQAEPPAAAEVQGAGNENEPREADKSHPEQRELRPRLCTMKKGPSGYGFNLHSDKSKPGQFIRSVDPDSPAEASGLRAQDRIVEVNGVCMEGKQHGDVVSAIRAGGDETKLLVVDRETDEFFKKCRVIPSQEHLNGPLPVPFTNGEIQKENSREALAEAALESPRPALVRSASSDTSEELNSQDSPPKQDSTAPSSTSSSDPILDFNISLAMAKERAHQKRSSKRAPQMDWSKKNELFSNL	1.293	0.1116
sp¦Q9Y3F4¦STRAP_HUMAN (protein, UniProt Q9Y3F4 1-350, looked up) Serine-threonine kinase …: MAMRQTPLTCSGHTRPVVDLAFSGITPYGYFLISACKDGKPMLRQGDTGDWIGTFLGHKGAVWGATLNKDATKAATAAADFTAKVWDAVSGDELMTLAHKHIVKTVDFTQDSNYLLTGGQDKLLRIYDLNKPEAEPKEISGHTSGIKKALWCSEDKQILSADDKTVRLWDHATMTEVKSLNFNMSVSSMEYIPEGEILVITYGRSIAFHSAVSLDPIKSFEAPATINSASLHPEKEFLVAGGEDFKLYKYDYNSGEELESYKGHFGPIHCVRFSPDGELYASGSEDGTLRLWQTVVGKTYGLWKCVLPEEDSGELAKPKIGFPETTEEELEEIASENSDCIFPSAPDVKA	1.284	0.1086
sp¦P12814¦ACTN1_HUMAN (protein, UniProt P12814 1-892, looked up) Alpha-actinin-1: MDHYDSQQTNDYMQPEEDWDRDLLLDPAWEKQQRKTFTAWCNSHLRKAGTQIENIEEDFRDGLKLMLLLEVISGERLAKPERGKMRVHKISNVNKALDFIASKGVKLVSIGAEEIVDGNVKMTLGMIWTIILRFAIQDISVEETSAKEGLLLWCQRKTAPYKNVNIQNFHISWKDGLGFCALIHRHRPELIDYGKLRKDDPLTNLNTAFDVAEKYLDIPKMLDAEDIVGTARPDEKAIMTYVSSFYHAFSGAQKAETAANRICKVLAVNQENEQLMEDYEKLASDLLEWIRRTIPWLENRVPENTMHAMQQKLEDFRDYRRLHKPPKVQEKCQLEINFNTLQTKLRLSNRPAFMPSEGRMVSDINNAWGCLEQVEKGYEEWLLNEIRRLERLDHLAEKFRQKASIHEAWTDGKEAMLRQKDYETATLSEIKALLKKHEAFESDLAAHQDRVEQIAAIAQELNELDYYDSPSVNARCQKICDQWDNLGALTQKRREALERTEKLLETIDQLYLEYAKRAAPFNNWMEGAMEDLQDTFIVHTIEEIQGLTTAHEQFKATLPDADKERLAILGIHNEVSKIVQTYHVNMAGTNPYTTITPQEINGKWDHVRQLVPRRDQALTEEHARQQHNERLRKQFGAQANVIGPWIQTKMEEIGRISIEMHGTLEDQLSHLRQYEKSIVNYKPKIDQLEGDHQLIQEALIFDNKHTNYTMEHIRVGWEQLLTTIARTINEVENQILTRDAKGISQEQMNEFRASFNHFDRDHSGTLGPEEFKACLISLGYDIGNDPQGEAEFARIMSIVDPNRLGVVTFQAFIDFMSRETADTDTADQVMASFKILAGDKNYITMDELRRELPPDQAEYCIARMAPYTGPDSVPGALDYMSFSTALYGESDL	1.274	0.1053
sp¦Q8NC51¦PAIRB_HUMAN (protein, UniProt Q8NC51 2-408, looked up) SERPINE1 mRNA-binding protein …: PGHLQEGFGCVVTNRFDQLFDDESDPFEVLKAAENKKKEAGGGGVGGPGAKSAAQAAAQTNSNAAGKQLRKESQKDRKNPLPPSVGVVDKKEETQPPVALKKEGIRRVGRRPDQQLQGEGKIIDRRPERRPPRERRFEKPLEEKGEGGEFSVDRPIIDRPIRGRGGLGRGRGGRGRGMGRGDGFDSRGKREFDRHSGSDRSSFSHYSGLKHEDKRGGSGSHNWGTVKDELTESPKYIQKQISYNYSDLDQSNVTEETPEGEEHHPVADTENKENEVEEVKEEGPKEMTLDEWKAIQNKDRAKVEFNIRKPNEGADGQWKKGFVLHKSKSEEAHAEDSVMDHHFRKPANDITSQLEINFGDLGRPGRGGRGGRGGRGRGGRPNRGSRTDKSSASAPDVDDPEAFPALA	1.286	0.1092

Same assay, conditions: SWATH-MS, akirin2 KO vs WT HL60 cells; over-represented in KO

Molecule	Fold Change	Log (Fold Change)
Serine protease 57 (protein, UniProt Q6UWY2 32-283, looked up) Serine protease 57: AQIIGGHEVTPHSRPYMASVRFGGQHHCGGFLLRARWVVSAAHCFSHRDLRTGLVVLGAHVLSTAEPTQQVFGIDALTTHPDYHPMTHANDICLLRLNGSAVLGPAVGLLRPPGRRARPPTAGTRCRVAGWGFVSDFEELPPGLMEAKVRVLDPDVCNSSWKGHLTLTMLCTRSGDSHRRGFCSADSGGPLVCRNRAHGLVSFSGLWCGDPKTPDVYTQVSAFVAWIWDVVRRSSPQPGPLPGTTRPPGEAA	3.338	0.5235

Same assay, conditions: akirin2 KO vs WT HL60 cells; sheet "Over-represented in KO"

Molecule	Fold Change	Log (Fold Change)
sp¦P50502¦F10A1_HUMAN (protein, UniProt P50502 1-369, looked up) Hsc70-interacting protein: MDPRKVNELRAFVKMCKQDPSVLHTEEMRFLREWVESMGGKVPPATQKAKSEENTKEEKPDSKKVEEDLKADEPSSEESDLEIDKEGVIEPDTDAPQEMGDENAEITEEMMDQANDKKVAAIEALNDGELQKAIDLFTDAIKLNPRLAILYAKRASVFVKLQKPNAAIRDCDRAIEINPDSAQPYKWRGKAHRLLGHWEEAAHDLALACKLDYDEDASAMLKEVQPRAQKIAEHRRKYERKREEREIKERIERVKKAREEHERAQREEEARRQSGAQYGSFPGGFPGGMPGNFPGGMPGMGGGMPGMAGMPGLNEILSDPEVLAAMQDPEVMVAFQDVAQNPANMSKYQSNPKVMNLISKLSAKFGGQA	1.2518	0.09753
